According to publication PMC8887127:

Columns and labels:
[1] = molecular target: T1, GST-BEND3-BD4 (gel shift construct) (Homo sapiens, UniProt Q5T5X7 546-828); assay: EMSA
T1 sequence: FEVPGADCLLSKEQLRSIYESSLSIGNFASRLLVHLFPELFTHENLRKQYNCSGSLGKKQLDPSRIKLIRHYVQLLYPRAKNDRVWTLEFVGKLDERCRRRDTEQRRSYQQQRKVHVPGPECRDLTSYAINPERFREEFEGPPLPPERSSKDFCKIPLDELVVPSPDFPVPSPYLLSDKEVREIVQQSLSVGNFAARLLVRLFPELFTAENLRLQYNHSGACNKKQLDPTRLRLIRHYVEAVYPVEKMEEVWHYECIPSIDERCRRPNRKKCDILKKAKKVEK

[2] = molecular target: T2, BEND3-BD4 (crystal construct) (Homo sapiens, UniProt Q5T5X7 715-828); assay: X-ray crystallography
T2 sequence: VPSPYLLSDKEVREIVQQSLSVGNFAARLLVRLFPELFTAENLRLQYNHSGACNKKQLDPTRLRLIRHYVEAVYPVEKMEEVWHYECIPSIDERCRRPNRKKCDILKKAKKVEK

B1: wild-type BD4 probe (dsDNA)
DNA 1: CTAAACACCCACGCGCCGTGGGTTGTCTT
DNA 2: AAGACAACCCACGGCGCGTGGGTGTTTAG
- binding result [1]: binds

B2: mutant BD4 probe (dsDNA)
DNA 1: CTAAACCTTTCTACGCTAAAACCTGTCTT
DNA 2: AAGACAGGTTTTAGCGTAGAAAGGTTTAG
- binding result [1]: no binding

B3: 13-mer BD4 target duplex (dsDNA)
DNA 1: GGACCCACGCAGC
DNA 2: GGCTGCGTGGGTC
- binding result [2]: binds
